Results from paper PMC11265280.

Target: MERS-CoV spike RBD (Middle East respiratory syndrome-related coronavirus) (UniProt K9N5Q8)
Assay: not given
Settings: cited from earlier work

Row | Substance | Kd [µM]
1 | DPP4 (from UniProt P27487) | 0.017

Target: PHEV spike S1 receptor-binding domain, Fc-tagged
Assay: co-immunoprecipitation, quantified band intensity
Settings: 293T cells; n = 3; parent: est. 100; read off a plot

Row | Substance | percent of parent (% of RBD binding)
2 | murine dipeptidyl peptidase 4, GFP-tagged (from UniProt P28843) A294E; R295E | 95
3 | murine dipeptidyl peptidase 4, GFP-tagged (from UniProt P28843) A294T; R295T | 100
4 | murine dipeptidyl peptidase 4, GFP-tagged (from UniProt P28843) K267A | 110
5 | murine dipeptidyl peptidase 4, GFP-tagged (from UniProt P28843) N229Q | 350
6 | murine dipeptidyl peptidase 4, GFP-tagged (from UniProt P28843) N321Q | 250
7 | murine dipeptidyl peptidase 4, GFP-tagged (from UniProt P28843) Q344A | 120
8 | murine dipeptidyl peptidase 4, GFP-tagged (from UniProt P28843) R317A | 92
9 | murine dipeptidyl peptidase 4, GFP-tagged (from UniProt P28843) T336E | 100
10 | porcine dipeptidyl peptidase 4, GFP-tagged (from UniProt P22411) K267A | 84
11 | porcine dipeptidyl peptidase 4, GFP-tagged (from UniProt P22411) L294E; I295E | 110
12 | porcine dipeptidyl peptidase 4, GFP-tagged (from UniProt P22411) L294T; I295T | 82
13 | porcine dipeptidyl peptidase 4, GFP-tagged (from UniProt P22411) N229Q | 190
14 | porcine dipeptidyl peptidase 4, GFP-tagged (from UniProt P22411) N321Q | 170
15 | porcine dipeptidyl peptidase 4, GFP-tagged (from UniProt P22411) Q344A | 130
16 | porcine dipeptidyl peptidase 4, GFP-tagged (from UniProt P22411) R317A | 98
17 | porcine dipeptidyl peptidase 4, GFP-tagged (from UniProt P22411) R336E | 120

Target: soluble porcine DPP4-IgG1 (porcine) (UniProt P22411)
Assay: SPR; BIAcore X-100, CM5 chip, room temperature; soluble DPP4-IgG1 immobilised by amine coupling; S1-RBD injected at 0.125-4.0 µM in 0.01 M HEPES, 0.15 M NaCl, 0.5% surfactant P20, 3 mM EDTA, pH 7.4; reference cell with BSA; steady-state affinity model
Settings: not given

Row | Substance | Kd [µM]
18 | monomeric PHEV S1-RBD (SPR analyte) (domain or fragment) | 0.175

Target: soluble murine DPP4-IgG1 (murine) (UniProt P28843)
Assay: as above
Settings: not given

Row | Substance | Kd [µM]
19 | monomeric PHEV S1-RBD (SPR analyte) (domain or fragment) | 0.361
